The results in this text go back to publication PMC2367712.

The target of the series is Lsr2 P103A (Mycobacterium tuberculosis, UniProt P9WIP7 1-112, P101A). In words: EMSA. (A gel shift assay detects complexes by their altered migration in electrophoresis.)

B1: C42 (dsDNA)
DNA 1: AAAAATCTCTAAAAAATCTCTAAAAATCTCTAAAAAATCTCT
DNA 2: AGAGATTTTTTAGAGATTTTTAGAGATTTTTTAGAGATTTTT
Take B1: the binding result is on record as “binds”.
